Measurements from US20220372147A1 (UNIVERSIT T STUTTGART, published 2022).
Where two headings read alike, the source gives them in different places.

T1: FcεRI Fc fusion protein comprising the extracellular region of FcεRI (human, UniProt P12319 26-205)
T1 construct: extracellular domain; also called FcεRT; FccRT; not shown: Fc part
T1 sequence (looked up): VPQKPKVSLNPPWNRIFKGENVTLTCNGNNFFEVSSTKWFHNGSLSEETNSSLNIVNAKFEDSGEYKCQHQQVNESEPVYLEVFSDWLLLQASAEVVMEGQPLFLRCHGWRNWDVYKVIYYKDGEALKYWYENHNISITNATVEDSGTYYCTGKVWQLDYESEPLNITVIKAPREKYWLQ


How the values were obtained:
[1] = biological target: T2, CD3 on CD3-expressing Jurkat cells (human, UniProt P07766 23-207); test: flow cytometry on CD3-expressing Jurkat cells, PE anti-human Fc
T2 construct: whole, on cells

[2] = biological target: T3, HER3 on HER3-expressing cancer cells (LIM1215, BT474) (UniProt P21860 20-1342, limits assumed); test: flow cytometry on HER3-expressing LIM1215 and BT474 cells
T3 construct: whole, on cells; also called HER3-expressing LIM1215 cells; HER3-expressing BT474 cells

[3] = biological target: T3, HER3 on HER3-expressing cancer cells …; test: cell-based or functional assay
[4] = biological target: T3, HER3 on HER3-expressing cancer cells …; test: flow cytometry on HER3-expressing LIM1215 cells, PE anti-human Fc
[5] = biological target: T4, His-tagged HER3 protein, extracellular domain (ECD) of HER3 (aa 21-643) (UniProt P21860 21-643); test: ELISA, immobilized HER3-His, anti-human Fc-HRP detection
T4 construct: range 21-643; also called HER3-His; not shown: His-tag

[6] = biological target: T2, CD3 on CD3-expressing Jurkat cells; test: flow cytometry on CD3-expressing Jurkat cells, PE anti-human Fc; remark: listed apart in the source
[7] = biological target: T3, HER3 on HER3-expressing cancer cells …; test: flow cytometry on HER3-expressing BT474 cells, PE anti-human Fc
[8] = biological target: T3, HER3 on HER3-expressing cancer cells …; test: flow cytometry on HER3-expressing LIM1215 cells, PE anti-human Fc; remark: listed apart in the source
[9] = biological target: T1, FcεRI Fc fusion protein comprising the …; test: ELISA, immobilized FcεRI-Fc, anti-human Fab detection
[10] = biological target: T3, HER3 on HER3-expressing cancer cells …; test: cell-based or functional assay; remark: listed apart in the source
[11] = biological target: T5, Flag-tagged FAP protein, extracellular domain of FAP (aa 32-728) (UniProt Q12884 32-728); test: ELISA, immobilized FAP-Flag, anti-human Fc-HRP detection
T5 construct: range 32-728; also called FAP-Flag; not shown: Flag-tag

EGFR-Fc = biological target: T6, EGFR-Fc (UniProt P00533 25-645); test: bifunctional sandwich ELISA: immobilized EGFR-Fc, titrated eIg-Fab, then HER3-His as second antigen detected with anti-His-HRP
T6 construct: also called immobilized EGFR-Fc antigen; not shown: Fc part

[12] = biological target: T4, His-tagged HER3 protein, extracellular …; test: ELISA, immobilized HER3-His, anti-human Fc-HRP detection; remark: listed apart in the source
[13] = biological target: T4, His-tagged HER3 protein, extracellular …; test: ELISA, immobilized HER3-His, anti-human Fab-HRP detection
[14] = biological target: T4, His-tagged HER3 protein, extracellular …; test: bifunctional sandwich ELISA: immobilized HER3-His, titrated Fab-eFab, then EGFR-moFc as second antigen detected with anti-mouse Fc-HRP
EGFR-moFc = biological target: T7, EGFR-moFc (UniProt P00533 25-645); test: bifunctional sandwich ELISA: immobilized HER3-His, EGFR-moFc detected with anti-mouse Fc-HRP
T7 construct: also called EGFR-moFc protein (second soluble antigen); not shown: murine Fc part

[15] = biological target: EGFR (immobilized control antigen of Example 11) (UniProt P00533 25-645, limits assumed); test: ELISA at 50 nM, immobilized EGFR, anti-human Fab detection

T2 sequence (P07766 23-207): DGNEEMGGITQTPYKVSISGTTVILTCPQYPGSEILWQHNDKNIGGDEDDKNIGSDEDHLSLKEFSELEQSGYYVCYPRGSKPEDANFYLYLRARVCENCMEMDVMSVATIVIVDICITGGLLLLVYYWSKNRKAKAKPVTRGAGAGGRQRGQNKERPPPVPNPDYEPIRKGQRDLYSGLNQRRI
T5 sequence (Q12884 32-728 limits assumed): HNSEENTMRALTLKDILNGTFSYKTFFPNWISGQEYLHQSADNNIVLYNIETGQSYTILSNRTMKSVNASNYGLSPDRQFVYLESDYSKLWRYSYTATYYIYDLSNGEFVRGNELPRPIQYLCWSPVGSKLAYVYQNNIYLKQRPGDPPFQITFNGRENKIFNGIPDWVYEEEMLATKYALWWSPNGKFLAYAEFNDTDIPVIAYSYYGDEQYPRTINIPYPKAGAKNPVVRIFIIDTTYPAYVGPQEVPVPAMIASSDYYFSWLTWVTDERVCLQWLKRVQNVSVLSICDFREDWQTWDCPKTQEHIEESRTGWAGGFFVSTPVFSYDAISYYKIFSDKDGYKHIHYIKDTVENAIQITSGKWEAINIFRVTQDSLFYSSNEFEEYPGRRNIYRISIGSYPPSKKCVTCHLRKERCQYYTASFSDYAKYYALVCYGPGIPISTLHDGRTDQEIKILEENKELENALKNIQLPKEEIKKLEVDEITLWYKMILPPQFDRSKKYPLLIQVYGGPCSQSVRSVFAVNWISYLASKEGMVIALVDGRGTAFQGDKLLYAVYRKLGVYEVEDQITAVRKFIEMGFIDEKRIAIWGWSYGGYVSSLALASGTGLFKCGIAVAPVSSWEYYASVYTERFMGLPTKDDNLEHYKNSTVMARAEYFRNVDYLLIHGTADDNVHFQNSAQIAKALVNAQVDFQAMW

Row | Binder | EC50 value in cell killing (PBMC-mediated cytotoxicity on BT-474 cells, crystal violet) [3] [nM] | EC50 value in cell killing (PBMC-mediated cytotoxicity on LIM1215 cells, crystal violet) [3] [nM] | EC50 [4] [nM] | EC50 [5] [nM] | EC50 [6] [nM] | EC50 [7] [nM] | binding result [9] | other results
1 | bispecific and bivalent anti-CD3 x anti-HER3 eIgG (bispecific antibody, One site for HER3 (3-43), one for CD3 (huU3, humanized UCHT1); also called eIg1; eIgl) light 1: QAGLTQPPAVSVAPGQTASITCGRDNIGSRSVHWYQQKPGQAPVLVVYDDSDRPAGIPERFSGSNYENTATLTISRVEAGDEADYYCQVWGITSDHVVFGGGTKLTVLGQPKAAPSVTLFPPSSEELQANKATLVCLISDFYPGAVTVAWKADSSPVKAGVETTTPSKQSNNKYAASSYLSLTPEQWKSHRSYSCQVTHEGSTVEKTVAPTECS heavy 1: not shown heavy 2: not shown light 2: not shown | 3.8 | 5.8 | 4 | 2.1 | 5.1 | 4.8 | no binding (tested: 50 nM) | EC50 [1]: 11.9 nM; factor weaker binding than the bispecific, trivalent eIg-Fab molecules [2]: ≤ 50 fold; EC50 [8]: 0.4 nM
2 | bispecific, trivalent eIg-Fab3 targeting HER3 and CD3 (bispecific antibody) light 1: QAGLTQPPAVSVAPGQTASITCGRDNIGSRSVHWYQQKPGQAPVLVVYDDSDRPAGIPERFSGSNYENTATLTISRVEAGDEADYYCQVWGITSDHVVFGGGTKLTVLGQPKAAPSVTLFPPSSEELQANKATLVCLISDFYPGAVTVAWKADSSPVKAGVETTTPSKQSNNKYAASSYLSLTPEQWKSHRSYSCQVTHEGSTVEKTVAPTECS light 2: not shown heavy 1: QVQLVQSGAEVKKPGSSVKVSCKASGGTFSGYTMNWVRQAPGQGLEWMGLINPYKGVSTYNGKFKDRVTITADKSTSTAYMELSSLRSEDTAVYYCARSGYYGDSDWYFDVWGQGTLVTVSSDFTPPTVKILQSSCDGGGHFPPTIQLLCLVSGYTPGTINITWLEDGQVMDVDLSTASTTQEGELASTQSELTLSQKHWLSDRTYTCQVTYQGHTFEDSTKKSADSNGGSGGGGSGGQVQLQQSGPGLVKPSQTLSLTCAISGDSVSSNRAAWNWIRQSPSRGLEWLGRTYYRSKWYNDYAQSLKSRITINPDTPKNQFSLQLNSVTPEDTAVYYCARDGQLGLDALDIWGQGTMVTVSSASTKGPSVFPLAPSSKSTSGGTAALGCLVKDYFPEPVTVSWNSGALTSGVHTFPAVLQSSGLYSLSSVVTVPSSSLGTQTYICNVNHKPSNTKVDKKVEPKSCGTDKTHTCPPCPAPPVAGPSVFLFPPKPKDTLMISRTPEVTCVVVDVSHEDPEVKFNWYVDGVEVHNAKTKPREEQYNSTYRVVSVLTVLHQDWLNGKEYKCKVSNKGLPSSIEKTISKAKGQPREPQVYTLPPCRDELTKNQVSLWCLVKGFYPSDIAVEWESNGQPENNYKTTPPVLDSDGSFFLYSKLTVDKSRWQQGNVFSCSVMHEALHNHYTQKSLSLSPGK heavy 2: QVQLQQSGPGLVKPSQTLSLTCAISGDSVSSNRAAWNWIRQSPSRGLEWLGRTYYRSKWYNDYAQSLKSRITINPDTPKNQFSLQLNSVTPEDTAVYYCARDGQLGLDALDIWGQGTMVTVSSASTKGPSVFPLAPSSKSTSGGTAALGCLVKDYFPEPVTVSWNSGALTSGVHTFPAVLQSSGLYSLSSVVTVPSSSLGTQTYICNVNHKPSNTKVDKKVEPKSCGTDKTHTCPPCPAPPVAGPSVFLFPPKPKDTLMISRTPEVTCVVVDVSHEDPEVKFNWYVDGVEVHNAKTKPREEQYNSTYRVVSVLTVLHQDWLNGKEYKCKVSNKGLPSSIEKTISKAKGQPREPQVCTLPPSRDELTKNQVSLSCAVKGFYPSDIAVEWESNGQPENNYKTTPPVLDSDGSFFLVSKLTVDKSRWQQGNVFSCSVMHEALHNHYTQKSLSLSPGK | 0.5 | 0.4 | 0.4 | – | 1.1 | 0.2 | – | potency in cell killing relative to eIg-Fab4 [10]: ~4 fold
3 | bivalent and bispecific eIg molecule targeting HER3 and FAP (bispecific antibody, Four different polypeptide chains; one site for HER3, one for FAP; also called eIg antibody targeting HER3 and FAP) light 1: QAGLTQPPAVSVAPGQTASITCGRDNIGSRSVHWYQQKPGQAPVLVVYDDSDRPAGIPERFSGSNYENTATLTISRVEAGDEADYYCQVWGITSDHVVFGGGTKLTVLGQPKAAPSVTLFPPSSEELQANKATLVCLISDFYPGAVTVAWKADSSPVKAGVETTTPSKQSNNKYAASSYLSLTPEQWKSHRSYSCQVTHEGSTVEKTVAPTECS heavy 1: not shown light 2: DIQMTQSPSSLSASVGDRVTITCRASKSVSTSAYSYMHWYQQKPGKAPKLLIYLASNLESGVPSRFSGSGSGTDFTLTISSLQPEDFATYYCQHSRELPYTFGQGTKLEIKRDFTPPTVKILQSSSDGGGHFPPTIQLLCLVSGYTPGTIQITWLEDGQVMDVDLSTASTTQEGELASTQSELTLSQKHWLSDRTYTCQVTYQGHTFEDSTKKCADSN heavy 2: not shown | – | – | – | 3.4 | – | – | – | EC50 [11]: 7.6 nM
4 | tetravalent and bispecific eIg-Fab molecule targeting HER3 and EGFR (bispecific antibody, Homodimerizing Fc; also called eIg-Fab EGFRxHER3) light 1: QAGLTQPPAVSVAPGQTASITCGRDNIGSRSVHWYQQKPGQAPVLVVYDDSDRPAGIPERFSGSNYENTATLTISRVEAGDEADYYCQVWGITSDHVVFGGGTKLTVLGTDFTPPTVKILQSSSDGGGHFPPTIQLLCLVSGYTPGTIQITWLEDGQVMDVDLSTASTTQEGELASTQSELTLSQKHWLSDRTYTCQVTYQGHTFEDSTKKCADSN light 2: DIQLTQSPSFLSASVGDRVTITCRASQSIGTNIHWYQQKPGKAPKLLIKYASESISGVPSRFSGSGSGTEFTLTISSLQPEDFATYYCQQNNNWPTTFGAGTKLEIKRTVAAPSVFIFPPSDEQLKSGTASVVCLLNNFYPREAKVQWKVDNALQSGNSQESVTEQDSKDSTYSLSSTLTLSKADYEKHKVYACEVTHQGLSSPVTKSFNRGEC heavy: not shown | – | – | – | – | – | – | no binding (tested: 50 nM) | EC50 (EGFR-Fc): 0.23 nM; EC50 [12]: 3.3 nM
5 | bivalent and bispecific Fab-eFab molecule targeting HER3 and EGFR (bispecific antibody, No Fc region; one site for EGFR and one for HER3; C-terminal His-tag on the heavy chain; also called Fab-eFab EGFRxHER3) light 1: QAGLTQPPAVSVAPGQTASITCGRDNIGSRSVHWYQQKPGQAPVLVVYDDSDRPAGIPERFSGSNYENTATLTISRVEAGDEADYYCQVWGITSDHVVFGGGTKLTVLGTDFTPPTVKILQSSSDGGGHFPPTIQLLCLVSGYTPGTIQITWLEDGQVMDVDLSTASTTQEGELASTQSELTLSQKHWLSDRTYTCQVTYQGHTFEDSTKKCADSN light 2: DIQLTQSPSFLSASVGDRVTITCRASQSIGTNIHWYQQKPGKAPKLLIKYASESISGVPSRFSGSGSGTEFTLTISSLQPEDFATYYCQQNNNWPTTFGAGTKLEIKRTVAAPSVFIFPPSDEQLKSGTASVVCLLNNFYPREAKVQWKVDNALQSGNSQESVTEQDSKDSTYSLSSTLTLSKADYEKHKVYACEVTHQGLSSPVTKSFNRGEC heavy: EVQLVESGGGLVQPGGSLRLSCAASGFSLTNYGVHWVRQAPGKGLEWLGVIWSGGNTDYNTPFTSRFTISRDNSKNTLYLQMNSLRAEDTAVYYCARALTYYDYEFAYWGQGTTVTVSSASTKGPSVFPLAPSSKSTSGGTAALGCLVKDYFPEPVTVSWNSGALTSGVHTFPAVLQSSGLYSLSSVVTVPSSSLGTQTYICNVNHKPSNTKVDKKVEPKSCGGSGGGGSGGQVQLQQSGPGLVKPSQTLSLTCAISGDSVSSNRAAWNWIRQSPSRGLEWLGRTYYRSKWYNDYAQSLKSRITINPDTPKNQFSLQLNSVTPEDTAVYYCARDGQLGLDALDIWGQGTMVTVSSDFTPPTVKILQSSCDGGGHFPPTIQLLCLVSGYTPGTINITWLEDGQVMDVDLSTASTTQEGELASTQSELTLSQKHWLSDRTYTCQVTYQGHTFEDSTKKSADSNAAAHHHHHH | – | – | – | – | – | – | no binding (tested: 50 nM) | EC50 [13]: 3.9 nM; EC50 [14]: 1.4 nM; binding result (EGFR-moFc): binds; binding result [15]: binds
